# Measured values as given in patent publication US11419921B2, “Methods of treating neurological disorders” (EnClear Therapies, Inc., priority 2018, dated 2022).
# B1: Trypsin: protease cleaving at the carboxyl side of lysine or arginine; in Table 21 also immobilized in-house on NHS-activated agarose resin (protein, UniProt P00760 24-246, looked up)
# Serine protease 1: IVGGYTCGANTVPYQVSLNSGYHFCGGSLINSQWVVSAAHCYKSGIQVRLGEDNINVVEGNEQFISASKSIVHPSYNSNTLNNDIMLIKLKSAASLNSRVASISLPTSCASAGTQCLISGWGNTKSSGTSYPDVLKCLKAPILSDSSCKSAYPGQITSNMFCAGYLEGGKDSCQGDSGGPVVCSGKLQGIVSWGSGCAQKNKPGVYTKVCNYVSWIKQTIASN
# System: (GR)10
# Test: Cleavage of (GR)10 by enzymes in solution (PBS with CaCl2 and MgCl2), LC/MS of GR repeats
# Type: biochemical
# Conditions: for (GR)1 concentration / (GR)2 concentration / (GR)3 concentration / (GR)4 concentration / (GR)5 concentration / (GR)6 concentration / (GR)8 concentration / (GR)10 concentration: (GR)10 50 μM; for (GR)1 / (GR)2 / (GR)3 / (GR)4 / (GR)5 / (GR)6 / (GR)8 / (GR)10: PBS, normalized
# Procedure: • (GR)10 dipeptide (also (GR)8, (GR)6, (GR)4, (GR)2) were synthetized by solid-phase synthesis by CanPeptide; All peptides are uncapped and supplied lyophilized with TFA as counter ions. Purity was always above 95%. • Buffer: PBS buffer containing CaCl2 and MgCl2. • Stock solution of enzyme (e.g., 10 mg/mL) (prepared per manufacturer instructions) in PBS. Activators added as necessary. • Working solution of protein of the desired concentration (e.g., 100 μg/mL) prepared immediately before use by diluting the stock solution (e.g., 5 μL of 10 mg/mL stock solution) in PBS buffer (e.g., in 495 μL of PBS). Exemplary Procedure Using 50 μM Concentrations of (GR)10
# 25 μL of a 100 μM solution of (GR)10 was added to each well of a 96-well plate. 25 μL of a solution of enzyme (two times the desired final enzyme concentration) was added, and the plates were incubated at room temperature. At the specified time points (5 minutes, 10 minutes, 30 minutes, 60 minutes, and 180 minutes) 2.5 μL of a 10% TFA solution were added to stop the reaction. For the time 0 min well, the TFA was added to the well before addition of the enzyme. After last time point, all samples were further diluted with 150 μL of dilution solution. The quenched reaction mixtures were analyzed by LC/MS to determine the concentration of GR repeats of different lengths.
# The chromatography and mass spectrometry conditions utilized are shown in Table 2 and Table 3, respectively.
molecule,measurement,setting,value
B1,(GR)1 concentration,"enzyme 2.5 μg/mL, 0 min",BLQ
same,(GR)2 concentration,"enzyme 2.5 μg/mL, 0 min",BLQ
same,(GR)3 concentration,"enzyme 2.5 μg/mL, 0 min",BLQ
same,(GR)4 concentration,"enzyme 2.5 μg/mL, 0 min",BLQ
same,(GR)5 concentration,"enzyme 2.5 μg/mL, 0 min",BLQ
same,(GR)6 concentration,"enzyme 2.5 μg/mL, 0 min",BLQ
same,(GR)8 concentration,"enzyme 2.5 μg/mL, 0 min",0.5 µM
same,(GR)10 concentration,"enzyme 2.5 μg/mL, 0 min",52.8 µM
same,(GR)1 concentration,"enzyme 2.5 μg/mL, 5 min",114.3 µM
same,(GR)2 concentration,"enzyme 2.5 μg/mL, 5 min",157.8 µM
same,(GR)3 concentration,"enzyme 2.5 μg/mL, 5 min",0.1 µM
same,(GR)4 concentration,"enzyme 2.5 μg/mL, 5 min",BLQ
same,(GR)5 concentration,"enzyme 2.5 μg/mL, 5 min",BLQ
same,(GR)6 concentration,"enzyme 2.5 μg/mL, 5 min",BLQ
same,(GR)8 concentration,"enzyme 2.5 μg/mL, 5 min",0.1 µM
same,(GR)10 concentration,"enzyme 2.5 μg/mL, 5 min",2.2 µM
same,(GR)1 concentration,"enzyme 2.5 μg/mL, 10 min",124.7 µM
same,(GR)2 concentration,"enzyme 2.5 μg/mL, 10 min",167.7 µM
same,(GR)3 concentration,"enzyme 2.5 μg/mL, 10 min",0.1 µM
same,(GR)4 concentration,"enzyme 2.5 μg/mL, 10 min",BLQ
same,(GR)5 concentration,"enzyme 2.5 μg/mL, 10 min",BLQ
same,(GR)6 concentration,"enzyme 2.5 μg/mL, 10 min",BLQ
same,(GR)8 concentration,"enzyme 2.5 μg/mL, 10 min",BLQ
same,(GR)10 concentration,"enzyme 2.5 μg/mL, 10 min",BLQ
same,(GR)1 concentration,"enzyme 2.5 μg/mL, 30 min",137.7 µM
same,(GR)2 concentration,"enzyme 2.5 μg/mL, 30 min",144.9 µM
same,(GR)3 concentration,"enzyme 2.5 μg/mL, 30 min",BLQ
same,(GR)4 concentration,"enzyme 2.5 μg/mL, 30 min",BLQ
same,(GR)5 concentration,"enzyme 2.5 μg/mL, 30 min",BLQ
same,(GR)6 concentration,"enzyme 2.5 μg/mL, 30 min",BLQ
same,(GR)8 concentration,"enzyme 2.5 μg/mL, 30 min",BLQ
same,(GR)10 concentration,"enzyme 2.5 μg/mL, 30 min",BLQ
same,(GR)1 concentration,"enzyme 2.5 μg/mL, 60 min",163.2 µM
same,(GR)2 concentration,"enzyme 2.5 μg/mL, 60 min",134.1 µM
same,(GR)3 concentration,"enzyme 2.5 μg/mL, 60 min",BLQ
same,(GR)4 concentration,"enzyme 2.5 μg/mL, 60 min",BLQ
same,(GR)5 concentration,"enzyme 2.5 μg/mL, 60 min",BLQ
same,(GR)6 concentration,"enzyme 2.5 μg/mL, 60 min",BLQ
same,(GR)8 concentration,"enzyme 2.5 μg/mL, 60 min",BLQ
same,(GR)10 concentration,"enzyme 2.5 μg/mL, 60 min",BLQ
same,(GR)1 concentration,"enzyme 2.5 μg/mL, 120 min",215.2 µM
same,(GR)2 concentration,"enzyme 2.5 μg/mL, 120 min",107.7 µM
same,(GR)3 concentration,"enzyme 2.5 μg/mL, 120 min",BLQ
same,(GR)4 concentration,"enzyme 2.5 μg/mL, 120 min",BLQ
same,(GR)5 concentration,"enzyme 2.5 μg/mL, 120 min",BLQ
same,(GR)6 concentration,"enzyme 2.5 μg/mL, 120 min",BLQ
same,(GR)8 concentration,"enzyme 2.5 μg/mL, 120 min",BLQ
same,(GR)10 concentration,"enzyme 2.5 μg/mL, 120 min",BLQ
same,(GR)1 concentration,"enzyme 10 μg/mL, 0 min",0.1 µM
same,(GR)2 concentration,"enzyme 10 μg/mL, 0 min",BLQ
same,(GR)3 concentration,"enzyme 10 μg/mL, 0 min",BLQ
same,(GR)4 concentration,"enzyme 10 μg/mL, 0 min",BLQ
same,(GR)5 concentration,"enzyme 10 μg/mL, 0 min",BLQ
same,(GR)6 concentration,"enzyme 10 μg/mL, 0 min",BLQ
same,(GR)8 concentration,"enzyme 10 μg/mL, 0 min",0.5 µM
same,(GR)10 concentration,"enzyme 10 μg/mL, 0 min",48.9 µM
same,(GR)1 concentration,"enzyme 10 μg/mL, 5 min",124.4 µM
same,(GR)2 concentration,"enzyme 10 μg/mL, 5 min",138.9 µM
same,(GR)3 concentration,"enzyme 10 μg/mL, 5 min",BLQ
same,(GR)4 concentration,"enzyme 10 μg/mL, 5 min",BLQ
same,(GR)5 concentration,"enzyme 10 μg/mL, 5 min",BLQ
same,(GR)6 concentration,"enzyme 10 μg/mL, 5 min",BLQ
same,(GR)8 concentration,"enzyme 10 μg/mL, 5 min",BLQ
same,(GR)10 concentration,"enzyme 10 μg/mL, 5 min",2.0 µM
same,(GR)1 concentration,"enzyme 10 μg/mL, 10 min",156.5 µM
same,(GR)2 concentration,"enzyme 10 μg/mL, 10 min",148.1 µM
same,(GR)3 concentration,"enzyme 10 μg/mL, 10 min",BLQ
same,(GR)4 concentration,"enzyme 10 μg/mL, 10 min",BLQ
same,(GR)5 concentration,"enzyme 10 μg/mL, 10 min",BLQ
same,(GR)6 concentration,"enzyme 10 μg/mL, 10 min",BLQ
same,(GR)8 concentration,"enzyme 10 μg/mL, 10 min",BLQ
same,(GR)10 concentration,"enzyme 10 μg/mL, 10 min",BLQ
same,(GR)1 concentration,"enzyme 10 μg/mL, 30 min",212.6 µM
same,(GR)2 concentration,"enzyme 10 μg/mL, 30 min",110.1 µM
same,(GR)3 concentration,"enzyme 10 μg/mL, 30 min",BLQ
same,(GR)4 concentration,"enzyme 10 μg/mL, 30 min",BLQ
same,(GR)5 concentration,"enzyme 10 μg/mL, 30 min",BLQ
same,(GR)6 concentration,"enzyme 10 μg/mL, 30 min",BLQ
same,(GR)8 concentration,"enzyme 10 μg/mL, 30 min",BLQ
same,(GR)10 concentration,"enzyme 10 μg/mL, 30 min",BLQ
same,(GR)1 concentration,"enzyme 10 μg/mL, 60 min",289.7 µM
same,(GR)2 concentration,"enzyme 10 μg/mL, 60 min",58.6 µM
same,(GR)3 concentration,"enzyme 10 μg/mL, 60 min",BLQ
same,(GR)4 concentration,"enzyme 10 μg/mL, 60 min",BLQ
same,(GR)5 concentration,"enzyme 10 μg/mL, 60 min",BLQ
same,(GR)6 concentration,"enzyme 10 μg/mL, 60 min",BLQ
same,(GR)8 concentration,"enzyme 10 μg/mL, 60 min",BLQ
same,(GR)10 concentration,"enzyme 10 μg/mL, 60 min",BLQ
same,(GR)1 concentration,"enzyme 10 μg/mL, 120 min",349.9 µM
same,(GR)2 concentration,"enzyme 10 μg/mL, 120 min",10.7 µM
same,(GR)3 concentration,"enzyme 10 μg/mL, 120 min",BLQ
same,(GR)4 concentration,"enzyme 10 μg/mL, 120 min",BLQ
same,(GR)5 concentration,"enzyme 10 μg/mL, 120 min",BLQ
same,(GR)6 concentration,"enzyme 10 μg/mL, 120 min",BLQ
same,(GR)8 concentration,"enzyme 10 μg/mL, 120 min",BLQ
same,(GR)10 concentration,"enzyme 10 μg/mL, 120 min",BLQ
same,(GR)1,in solution - 5 min reaction,178.0 µM
same,(GR)2,in solution - 5 min reaction,0.0 µM
same,(GR)3,in solution - 5 min reaction,0.0 µM
same,(GR)4,in solution - 5 min reaction,0.0 µM
same,(GR)5,in solution - 5 min reaction,0.0 µM
same,(GR)6,in solution - 5 min reaction,0.0 µM
same,(GR)8,in solution - 5 min reaction,0.0 µM
same,(GR)10,in solution - 5 min reaction,0.0 µM
same,(GR)1,in solution - 60 min reaction,321.4 µM
same,(GR)2,in solution - 60 min reaction,154.0 µM
same,(GR)3,in solution - 60 min reaction,0.0 µM
same,(GR)4,in solution - 60 min reaction,0.0 µM
same,(GR)5,in solution - 60 min reaction,0.0 µM
same,(GR)6,in solution - 60 min reaction,0.0 µM
same,(GR)8,in solution - 60 min reaction,0.0 µM
same,(GR)10,in solution - 60 min reaction,0.0 µM
